This note sets out measurements from patent US6906176B2, “Enterokinase cleavage sequences” (Dyax Corp., priority 2000, dated 2005).

Holding throughout (format): biochemical
The target of assay [1] is T1, recombinant light chain enterokinase (Bos taurus, UniProt P98072).
T1 construct: enterokinase cleavage using 30 nM recombinant light chain enterokinase (Novagen); purchased Novagen, Madison, Wis
Briefly: Cleavage site test: digestion of synthetic test peptides to completion, HPLC and mass spectroscopy. The note with it: for extent of enterokinase digestion: 36-48 hrs with 20U enterokinase, HPLC; for recovered product, product peak 1 / recovered product, product peak 2: 60 to 100 μg peptide digested to completion (36-48 hrs) with 20U enterokinase, reverse phase HPLC, electrospray MS. How it is done: To further test the predicted cleavage site as well as the rates and extent of cleavage, seven test peptides shown in Table 6 were chemically synthesized, contacted with enterokinase, and analyzed by HPLC and mass spectrometric analysis.
To test the predicted cleavage site, i.e., following the acid-base dipeptide motif, 60 to 100 μg of each test peptide was digested to completion (36-48 hrs) with 20U of recombinant light chain enterokinase (Novagen) and analyzed by reverse phase HPLC. Product peaks were eluted with a water/acetonitrile (H2O/ACN) gradient and identified by electrospray mass spectroscopy.
“% ACN” estimates the position in the H2O/Acetonitrile gradient at which the indicated cleavage fragment eluted. The expected product peaks for GDDDDK (residue 1-6 SEQ ID NO:197) and NKAKDR (residues 1-6, SEQ ID NO:201) were not detected by HPLC, but the cleavage site could be determined from analyzing the alternate product peak, i.e., the peptide to the C-terminal side of the cleavage site.

Assay [2] has as its target T1, recombinant light chain enterokinase. Briefly: Relative rate of cleavage of synthetic peptides by HPLC. The settings on record: about 500 μM peptide; for cleavage rate compared with the other peptides (in words): 50 nM enterokinase; for Cleavage Rate: 50 nM recombinant light chain enterokinase. The method, then: Peptides were digested with enterokinase and aliquots tested at timed intervals by HPLC to quantitate the extent of cleavage. For each test peptide, about 500 μM of peptide were digested with 50 nM of recombinant light chain enterokinase. The seven synthetic peptides were compared with a commercially available standard EK cleavage substrate, GDDDDK-β-naphthylamine (GDDDDK-βNA, SEQ ID NO:203; from BACHEM, King of Prussia, Pa.), having a fluorescent leaving group that increases in fluorescence when it is cleaved.

The target in assay [3] is T2, enterokinase (Bos taurus, UniProt P98072).
T2 construct: provide a substrate specifically recognized and cleaved by recombinant light chain enterokinase
T2 sequence (P98072 801-1035 limits assumed): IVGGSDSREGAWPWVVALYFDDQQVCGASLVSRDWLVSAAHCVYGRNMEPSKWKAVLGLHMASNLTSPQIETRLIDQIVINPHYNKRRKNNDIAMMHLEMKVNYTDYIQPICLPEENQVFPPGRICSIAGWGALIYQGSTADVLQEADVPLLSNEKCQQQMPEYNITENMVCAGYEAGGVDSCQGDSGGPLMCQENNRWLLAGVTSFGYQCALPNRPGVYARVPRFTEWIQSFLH
Briefly: Substrate competition with reference peptide GDDDDK-βNA. The settings on record: for reference peptide rate (Vb): rate of reference peptide GDDDDK-βNA 250 μM in competition with the test peptide 250 μM; for ratio (Va/Vb): test peptide cleavage rate to reference peptide cleavage rate, 250 μM each; for ratio kcat/Km, times greater than that of the reference peptide: tested in competition at 250 μM. How it is done: Rates of substrate hydrolysis depends on several factors, namely, concentration of enzyme and substrate, Km (Michaelis constant) values, and kcat (catalytic rate constant) values. One way to compare the relative efficiencies with which a protease hydrolyses two substrates (a and b) is to simultaneously incubate both substrates in a single reaction with the enzyme and measure the rates of product formation for each (Va and Vb). If the total product formation is low (<10%), the starting concentrations of the two competing substrates are the same, and the reaction is performed at steady-state: Va/Vb=(kcat/Km)a/(kcat/Km)b Relative ratios of kcat/Km can be determined from relative rates of substrate hydrolysis.
To compare the relative efficiency of hydrolysis by enterokinase, reference peptide (GDDDDK-βNA, 250 μM, SEQ ID NO:203) was incubated simultaneously with one of the test peptides (250 μM), treated with enterokinase, and the relative rate of product formation measured. The products were quantitated by HPLC and initial cleavage rates calculated.

The target in assay [4] is T1, recombinant light chain enterokinase. Briefly: Relative rate of cleavage of synthetic peptides by HPLC. The note with it: relative to GDDDDK-βNA; peptides tested individually at 500 μM.
Assay [5] has the same target. Nature of the assay: Phage ELISA kinetics of enterokinase cleavage of phage isolates. The settings on record: streptavidin-bound phage, 30 nM or 130 nM enterokinase, 30 minutes. How it is done:
FIG. 1 and FIG. 2 show the time course of enterokinase cleavage of phage isolates from five rounds of screening a substrate phage library. The tested isolates were those having recurring sequences among 90 sequenced isolates. The isolates are tested in comparison with an isolate (5-H11) containing the known enterokinase cleavage sequence DDDDK and an unselected phage displaying a polypeptide not recognized by enterokinase.
Phage displaying each of the sequences shown in Table 5 were tested individually for kinetics of enterokinase cleavage using a phage ELISA. Streptavidin-bound phage were treated with either 30 nM or 130 nM enterokinase for 30 minutes. The time courses of phage release are shown in FIG. 1 (release at 30 nM EK) and FIG. 2 (release at 130 nM EK). Phage from the unselected substrate library were used as a control, i.e., isolate 5-F08. (SEQ ID NO:196).

Marks after values point to notes of the source that are not given here.

T1 sequence (P98072 801-1035 limits assumed): as above

On to “AVLSNVMFT (AVLSNVMFI; negative control in EK cleavage experiment) [AVLSNVMFII, negative control test peptide, reference compound]”, for which the “extent of enterokinase digestion” value in assay [1] was “not cleaved at all”; in assay [1] (listed as negative control peptide), “No cleavage”.

With “DINDDRSLF (synthetic enterokinase cleavage sequence)”, in assay [1], the “recovered product, product peak 1” value is reported as “DINDDR” and the “recovered product, product peak 2” value is “SLF”. Besides, in assay [2], the “cleavage rate compared with the other peptides (in words)” value is “cleaved significantly more rapidly than the two control peptides” and the “Cleavage Rate” value is recorded as 1/43. Besides, in assay [3], the “reference peptide rate (Vb)” value was found to be 0.006; the “ratio (Va/Vb)” value is listed as 30; the “ratio kcat/Km, times greater than that of the reference peptide” value was found to be 30. Also, in assay [4], the “rate relative to standard substrate” value worked out at 3.1.

For the substance “DINDDRSLFSESS (synthetic enterokinase cleavage sequence) [Isolate 5-H04, round 5 phage isolate]”, in assay [5], the “enterokinase cleavage rate of phage isolate (phage release)” value is “most readily cut”.

With “GDDDDK-β-naphthylamine [GDDDDK-βNA, reference compound]”, in assay [2], the “cleavage rate compared with the other peptides (in words)” value is “cleaved at nearly equal rates and more rapidly than the remaining three peptides tested”; the “Cleavage Rate” value is 0.46 nmol/min. Also, in assay [4], the “rate relative to standard substrate” value is “(1.0)”.

Turning to “GDDDDKIYV (natural enterokinase cleavage sequence) [reference compound]”, the “recovered product, product peak 2” value in assay [1] was “IYV”. Besides, in assay [2], the “cleavage rate compared with the other peptides (in words)” value is “cleaved at nearly equal rates and more rapidly than the remaining three peptides tested”; the “Cleavage Rate” value was found to be 0.34 nmol/min. In addition, in assay [3], the “reference peptide rate (Vb)” value is listed as 0.027 and the “ratio (Va/Vb)” value is reported as 1.0. For the same substance, the “rate relative to standard substrate” value in assay [4] was 0.7.

With “GNYTDRMFI (synthetic enterokinase cleavage sequence)”, in assay [1], the “recovered product, product peak 1” value is recorded as “GNYTDR” and the “recovered product, product peak 2” value was “MET”. Moreover, in assay [2], the “cleavage rate compared with the other peptides (in words)” value was “cleaved significantly more rapidly than the two control peptides” and the “Cleavage Rate” value was 0.81 nmol/min. In assay [3], the “reference peptide rate (Vb)” value was found to be 0.011; the “ratio (Va/Vb)” value is 3.5; the “ratio kcat/Km, times greater than that of the reference peptide” value was 3.5. For the same substance, the “rate relative to standard substrate” value in assay [4] was determined as 1.8.

“GNYTDRRFI (synthetic enterokinase cleavage sequence)”: in assay [1], the “recovered product, product peak 1” value is recorded as “GNYTDR” and the “recovered product, product peak 2” value is “RFI”. Also, the “Cleavage Rate” value in assay [2] came to 0.18 nmol/min. Moreover, in assay [4], the “rate relative to standard substrate” value is 0.4.

As for “GNYTDRYFI (commercial synthetic enterokinase cleavage substrate)”, in assay [1], the “recovered product, product peak 1” value is given as “GNYTDR” and the “recovered product, product peak 2” value is “YFI”. Besides, the “Cleavage Rate” value in assay [2] is 0.24 nmol/min. In assay [4], the “rate relative to standard substrate” value worked out at 0.5.

“MGDDDDKIYVYKT (synthetic enterokinase cleavage sequence) [Isolate 5-H11, reference compound]”: the “enterokinase cleavage rate of phage isolate (phage release)” value in assay [5] is “slower than for at least three of the other isolates”.

For “NKAKDRMFI (synthetic enterokinase cleavage sequence)”, the “recovered product, product peak 2” value in assay [1] was “MFI”. Also, the “Cleavage Rate” value in assay [2] is reported as ~0.26* nmole/min. The “rate relative to standard substrate” value in assay [4] was determined as 0.6.
